The series deals with the molecule itself. The series is described as follows: homodimer formation; expressed alone in 293-6E, western blot with goat anti-human Fc HRP. An excerpt: FIG. 11. […] Fc molecules were detected using goat-anti-human Fc HRP conjugated at 1:10,000.
DNA was transfected into human embryonic kidney cell line 293-6E using Lipofectamine™ 2000 reagent (Invitrogen). The cell culture supernatant was harvested 3-4 days after transfection and analyzed on SDS-PAGE Gels under non-reduced condition. The gel was then transferred to nitrocellulose membrane and subject to western analysis using peroxidase-conjugated goat anti-human IgG antibody (Jackson ImmunoResearch Laboratories) and results are shown in FIG. 10.
Mutants were made and cells transfected as described in Example 1. When the constructs were co-transfected, a 1:1 ratio of plasmids were used. Heterodimer and homodimers were detected by Western blot using goat-anti-human Fc HRP conjugated antibody. […] Similarly, Fc-containing molecules having triple mutations wherein negative-charged residues were changed to positive-charged residues (D399K,E356K,E357K) were unable to be detected when expressed alone. When co-expressed with an Fc-containing molecule having mutations of opposite charge polarity, however, heterodimers only were detected.
(In general: A western blot detects proteins with antibodies after separation by electrophoresis.)

B1: Fc-containing molecule with triple mutation D399K, E356K, E357K (Fc fusion)
chain: HMAEVQLQQSGAELVKPGSSVKISCKASGYTFANNFMHWIKQQPGNGLEWIGWIYPGDGDTEYNQKFSGKATLTADKSSSTAYMQLNSLTSEDSAVYFCIRLTEGTTYWGQGVMVTVSSGGGGSGGGGSGGGGSQFVLTQPNSVSTNLGSTVKLSCKRSTGNIGSNYVNWYQQHEGRSPTTMIYRDDKRPDGVPDRFSGSIDGSSNSALLTINNVQTEDEADYFCQSYSRGVSPVFGGGTKLTVLAAAEPKSCDKTHTCPPCPAPELLGGPSVFLFPPKPKDTLMISRTPEVTCVVVDVSHEDPEVKFNWYVDGVEVHNAKTKPREEQYNSTYRVVSVLTVLHQDWLNGKEYKCKVSNKALPAPIEKTISKAKGQPREPQVYTLPPSRKKMTKNQVSLTCLVKGFYPSDIAVEWESNGQPENNYKTTPPVLKSDGSFFLYSKLTVDKSRWQQGNVFSCSVMHEALHNHYTQKSLSLSPGK
Regarding B1, the binding result is given as “no binding”.

B2: Fc-containing molecule with triple mutation K409D, K392D, K370D (other)
chain: EPKSCDKTHTCPPCPAPELLGGPSVFLFPPKPKDTLMISRTPEVTCVVVDVSHEDPEVKFNWYVDGVEVHNAKTKPREEQYNSTYRVVSVLTVLHQDWLNGKEYKCKVSNKALPAPIEKTISKAKGQPREPQVYTLPPSREEMTKNQVSLTCLVDGFYPSDIAVEWESNGQPENNYDTTPPVLDSDGSFFLYSDLTVDKSRWQQGNVFSCSVMHEALHNHYTQKSLSLSPGK
Turning to B2, the binding result is given as “no binding”.

B3: Fc-containing molecule with triple mutation K409D, K392D, K439D (other)
chain: EPKSCDKTHTCPPCPAPELLGGPSVFLFPPKPKDTLMISRTPEVTCVVVDVSHEDPEVKFNWYVDGVEVHNAKTKPREEQYNSTYRVVSVLTVLHQDWLNGKEYKCKVSNKALPAPIEKTISKAKGQPREPQVYTLPPSREEMTKNQVSLTCLVKGFYPSDIAVEWESNGQPENNYDTTPPVLDSDGSFFLYSDLTVDKSRWQQGNVFSCSVMHEALHNHYTQDSLSLSPGK
In the case of B3, the binding result is recorded as “no binding”.

The values above are taken from patent US20100286374A1 (Amgen, published 2010).
